The values below come from patent publication US20030068675, “Position dependent recognition of GNN nucleotide triplets by zinc fingers” (published 2003).

Where a chain is given by its changes, count along the chain named.

Common to all, as to test: EMSA
What all share (settings): tags: MBP fusion

One data set addresses T1, ZFP SBS#928 (synthetic).
T1 chain: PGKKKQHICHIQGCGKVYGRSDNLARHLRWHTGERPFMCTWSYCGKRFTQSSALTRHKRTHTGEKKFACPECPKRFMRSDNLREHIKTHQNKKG
In outline:
(§1)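 Purified ZFP was titrated against labeled double-stranded target (1 nM or lower, at least 10-fold below expected Kd) carrying the natural binding site with flanks. Binding buffer was 10 mM Tris pH 7.5, 100 mM KCl, 1 mM MgCl2, 0.1 mM ZnCl2, 5 mM DTT, 10% glycerol, 0.02% BSA, with equilibration for at least 45 min. Bound and free target were separated on a 10% polyacrylamide gel.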

A further data set deals with T2, ZFP SBS#927 (synthetic).
T2 chain: T1 chain with Q50T, S52G, A53S
The gist of the method: as §1

A further data set deals with ZFP SBS#963 (synthetic). In outline: as §1
For the next data set, the target named is ZFP SBS#962 (synthetic, UniProt P08047). In outline: as §1
The target of the next data set is ZFP SBS#910 (synthetic). The gist of the method: as §1
In the next data set the target is ZFP SBS#934 (synthetic). The gist of the method: as §1
The next data set has as its target ZFP SBS#931 (synthetic). The gist of the method:
as §1

The next data set concerns the target T3, ZFP SBS#966 (synthetic).
T3 chain: T1 chain with R20E, S21R, D22G, N23T, Q50R, S52D, A53N, T55S, R83A, E84R
In outline: as §1

The next data set deals with T4, ZFP SBS#967 (synthetic).
T4 chain: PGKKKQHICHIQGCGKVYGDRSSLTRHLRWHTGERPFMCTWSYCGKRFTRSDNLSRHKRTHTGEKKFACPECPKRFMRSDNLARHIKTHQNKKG
The gist of the method: as §1

The target of another data set is ZFP SBS#947 (synthetic). In outline:
as §1

A further data set concerns the target T5, ZFP SBS#946 (synthetic).
T5 chain: T4 chain with D20R, R21S, S22D, N53V, S55Q, R78M, D80H, N81H, A83S
The gist of the method: as §1

A further data set addresses T6, ZFP SBS#945 (synthetic).
T6 chain: T4 chain with D20R, R21S, S22D, S51A, N53T, S55R, R78M, D80H, N81H, A83S
The gist of the method: as §1

The target of the next data set is ZFP SBS#948 (synthetic). The gist of the method:
as §1

The target of a further data set is T7, ZFP SBS#978 (synthetic).
T7 chain: T1 chain with N23S, A25T, S52G, A53D, N81A
In outline:
as §1

The next data set has as its target T8, ZFP SBS#977 (synthetic).
T8 chain: T1 chain with N23S, A25T, S52G, A53S, N81A
In outline:
as §1

For a further data set, the target named is T9, ZFP SBS#975 (synthetic).
T9 chain: T1 chain with R20Q, D22S, N23D, A25T, Q50D, S51R, A53S
In outline:
as §1

The target of another data set is ZFP SBS#976 (synthetic). In outline: as §1
The target in another data set is T10, ZFP SBS#965 (synthetic).
T10 chain: T4 chain with D20E, S22G, S23D, N53E, S55Q, N81E, L82R, A83K
In outline:
as §1

A further data set concerns the target T11, ZFP SBS#971 (synthetic).
T11 chain: T4 chain with R50D, S51R, D52S, N53H, S55A, N81A
The gist of the method:
as §1

A further data set addresses T12, ZFP SBS#972 (synthetic).
T12 chain: T4 chain with D20E, S22G, S23D, R50D, S51R, D52S, N53H, S55A, N81A
In outline: as §1

The target in a further data set is T13, ZFP SBS#970 (synthetic).
T13 chain: T4 chain with D20E, S22G, S23T, T25A, R50D, S51R, D52S, N53H, S55A, N81A
In outline:
as §1

A further data set addresses T14, ZFP SBS#973 (synthetic).
T14 chain: T4 chain with S23A, N53E, S55Q, R78E, S79R, D80G, N81T
The gist of the method: as §1

The next data set deals with T15, ZFP SBS#974 (synthetic).
T15 chain: T4 chain with S23A, N53E, S55Q, R78D, S79R, D80S, N81D, A83T
The gist of the method: as §1

Another data set concerns the target ZFP SBS#436 (synthetic). The gist of the method: as §1
The next data set concerns the target ZFP SBS#437 (synthetic). In outline:
as §1

In the next data set the target is T16, ZFP SBS#434 (synthetic).
T16 chain: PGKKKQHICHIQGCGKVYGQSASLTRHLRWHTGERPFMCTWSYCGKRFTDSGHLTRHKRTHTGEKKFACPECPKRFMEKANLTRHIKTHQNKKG
In outline:
as §1

A further data set concerns the target T17, ZFP SBS#435 (synthetic).
T17 chain: T16 chain with K79R, A80G
The gist of the method: as §1

The target of the next data set is ZFP SBS#935 (synthetic). In outline: as §1
The target of the next data set is ZFP SBS#911 (synthetic). In outline: as §1
The target in a further data set is T18, ZFP SBS#968 (synthetic).
T18 chain: T4 chain with D20Q, R21S, S22G, R50D, S51R, D52S, N53S, S55T
The gist of the method:
as §1

The target of the next data set is T19, ZFP SBS#969 (synthetic).
T19 chain: T4 chain with D20Q, R21S, S22G, R50D, S51R, D52S, N53D, S55T
In outline: as §1

The target in a further data set is T20, ZFP SBS#929 (synthetic).
T20 chain: T1 chain with R20Q, D22S, S52A, A53T, T55A
The gist of the method: as §1

The target of another data set is ZFP SBS#903 (synthetic). In outline:
as §1

The target in a further data set is T21, ZFP SBS#932 (synthetic).
T21 chain: T1 chain with N23H, A53N, T55V, N81A, E84Q
In outline: as §1

A further data set deals with T22, ZFP SBS#933 (synthetic).
T22 chain: T16 chain with S23N, T25A, D50R, G52D, H53N, T55A, E78D, K79R, A80S
In outline: as §1

ZFP SBS#948 (synthetic), sequence (chain, as listed by the source): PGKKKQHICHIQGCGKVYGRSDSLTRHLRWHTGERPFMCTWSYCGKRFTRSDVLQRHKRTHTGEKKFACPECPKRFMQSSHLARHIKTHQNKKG
ZFP SBS#911 (synthetic), sequence (chain, as listed by the source): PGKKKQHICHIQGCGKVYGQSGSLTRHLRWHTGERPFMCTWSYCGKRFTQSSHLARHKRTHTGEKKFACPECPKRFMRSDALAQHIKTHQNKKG
ZFP SBS#437 (synthetic), sequence (chain, as listed by the source): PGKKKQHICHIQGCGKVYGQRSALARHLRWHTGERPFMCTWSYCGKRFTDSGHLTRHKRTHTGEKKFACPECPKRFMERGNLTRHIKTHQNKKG
ZFP SBS#947 (synthetic), sequence (chain, as listed by the source): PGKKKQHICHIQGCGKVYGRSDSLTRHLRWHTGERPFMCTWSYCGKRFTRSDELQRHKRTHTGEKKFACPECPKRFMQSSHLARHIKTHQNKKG
ZFP SBS#910 (synthetic), sequence (chain, as listed by the source): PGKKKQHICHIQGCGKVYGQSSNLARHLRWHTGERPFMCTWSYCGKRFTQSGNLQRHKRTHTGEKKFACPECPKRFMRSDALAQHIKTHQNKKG
ZFP SBS#436 (synthetic), sequence (chain, as listed by the source): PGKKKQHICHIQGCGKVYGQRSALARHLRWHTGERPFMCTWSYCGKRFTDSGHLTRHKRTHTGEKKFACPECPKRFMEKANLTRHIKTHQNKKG
ZFP SBS#934 (synthetic), sequence (chain, as listed by the source): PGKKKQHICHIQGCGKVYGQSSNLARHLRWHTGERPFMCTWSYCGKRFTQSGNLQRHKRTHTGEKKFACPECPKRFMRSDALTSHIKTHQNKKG
ZFP SBS#962, sequence (P08047 other isoform, or with tags, fused parts or gaps): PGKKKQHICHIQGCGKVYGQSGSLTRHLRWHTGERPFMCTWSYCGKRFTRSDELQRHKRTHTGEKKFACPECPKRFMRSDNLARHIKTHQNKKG
ZFP SBS#903 (synthetic), sequence (chain, as listed by the source): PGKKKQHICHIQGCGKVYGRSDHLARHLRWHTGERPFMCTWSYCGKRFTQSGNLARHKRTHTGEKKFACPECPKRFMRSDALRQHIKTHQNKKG
ZFP SBS#931 (synthetic), sequence (chain, as listed by the source): as the sequence (P08047 other isoform, or with tags, fused parts or gaps) above, with Q20R, G22D, S23N, T25A, R50Q, D52S, E53N, Q55V counted along it
ZFP SBS#976 (synthetic), sequence (chain, as listed by the source): as the sequence (P08047 other isoform, or with tags, fused parts or gaps) above, with G22S, S23D, R50D, S51R, D52S, E53D, Q55T, A83R, R84E counted along it

B1: CAGGTTGAG (dsDNA)
DNA 1: CAGGTTGAG
DNA 2: CTCAACCTG
As a reminder, the Kd is the concentration at which binding is half-saturated. The low end stands for a tighter complex, the high end for a looser complex. Consider B1, for which the dissociation constant Kd in the data set with ZFP SBS#928 was determined as 25 nM; with ZFP SBS#927, 3.61 nM.

B2: GAGGCGGCA (dsDNA)
DNA 1: GAGGCGGCA
DNA 2: TGCCGCCTC
On to B2, for which the dissociation constant Kd with ZFP SBS#963 and with ZFP SBS#962 was 0.015 nM each time.

B3: ATGGAAGAT (dsDNA)
DNA 1: ATGGAAGAT
DNA 2: ATCTTCCAT
In the case of B3, the figures for the equilibrium dissociation constant (Kd) with ZFP SBS#910 and in the data set with ZFP SBS#934 were 0.03 nM and 0.07 nM, respectively.

B4: GAGGAAGAG (dsDNA)
DNA 1: GAGGAAGAG
DNA 2: CTCTTCCTC
B4 had a dissociation constant Kd with ZFP SBS#931 of 2 nM.

B5: GAGGAGGCC (dsDNA)
DNA 1: GAGGAGGCC
DNA 2: GGCCTCCTC
In the case of B5, the results for the Kd in the data set with ZFP SBS#966 and with ZFP SBS#967 were 0.028 nM and 0.055 nM, respectively.

B6: GGTGCGGTG (dsDNA)
DNA 1: GGTGCGGTG
DNA 2: CACCGCACC
On to B6, for which the Kd with ZFP SBS#947 amounted to 0.013 nM; with ZFP SBS#946, 0.027 nM; in the data set with ZFP SBS#945, 0.027 nM; with ZFP SBS#948, 0.017 nM.

B7: CTGGCAGTG (dsDNA)
DNA 1: CTGGCAGTG
DNA 2: CACTGCCAG
Take B7: the dissociation constant (Kd) amounted to 1.58 nM with ZFP SBS#978 and 0.017 nM with ZFP SBS#977.

B8: CAGGCCGCT (dsDNA)
DNA 1: CAGGCCGCT
DNA 2: AGCGGCCTG
As to B8, the dissociation constant (Kd) amounted to 1.1 nM with ZFP SBS#975 and 4.12 nM in the data set with ZFP SBS#976.

B9: GCGGCGGCC (dsDNA)
DNA 1: GCGGCGGCC
DNA 2: GGCCGCCGC
B9: in the data set with ZFP SBS#965, the Kd is 3.1 nM.

B10: GTGGGCGCC (dsDNA)
DNA 1: GTGGGCGCC
DNA 2: GGCGCCCAC
In the case of B10, the equilibrium dissociation constant (Kd) was determined as 0.144 nM with ZFP SBS#971, 1.75 nM with ZFP SBS#972 and 1.86 nM in the data set with ZFP SBS#970.

B11: GCCGCGGTC (dsDNA)
DNA 1: GCCGCGGTC
DNA 2: GACCGCGGC
As for B11, the dissociation constant Kd is 0.6 nM with ZFP SBS#973 and 0.038 nM with ZFP SBS#974.

B12: GACGGCGTA (dsDNA)
DNA 1: GACGGCGTA
DNA 2: TACGCCGTC
Turning to B12, the equilibrium dissociation constant (Kd) was 95 nM in the data set with ZFP SBS#436, 118 nM with ZFP SBS#437, 152 nM with ZFP SBS#434 and 150 nM with ZFP SBS#435.

B13: ATGGGTGCA (dsDNA)
DNA 1: ATGGGTGCA
DNA 2: TGCACCCAT
B13: the equilibrium dissociation constant (Kd) in the data set with ZFP SBS#935 and in the data set with ZFP SBS#911 was 0.91 nM throughout.

B14: GAGGCCGCA (dsDNA)
DNA 1: GAGGCCGCA
DNA 2: TGCGGCCTC
B14: the Kd worked out at 1.4 nM with ZFP SBS#968 and 0.275 nM in the data set with ZFP SBS#969.

B15: CAGGTAGAT (dsDNA)
DNA 1: CAGGTAGAT
DNA 2: ATCTACCTG
In the data set with ZFP SBS#929, B15 gave a dissociation constant Kd of 1.3 nM.

B16: ATGGAAGGG (dsDNA)
DNA 1: ATGGAAGGG
DNA 2: CCCTTCCAT
As for B16, the dissociation constant Kd in the data set with ZFP SBS#903 turned out to be 1.03 nM; with ZFP SBS#932, 797 nM.

B17: GACGAGGAA (dsDNA)
DNA 1: GACGAGGAA
DNA 2: TTCCTCGTC
For the molecule B17, the affinity with ZFP SBS#933, expressed as Kd, was 500 nM.
